Patent US20070098681A1 (published 2007)

How the values were obtained:
DcR1 receptor-IgG = biological target: T1, DcR1 receptor-IgG (UniProt O14798 26-236, limits assumed); assay: AlphaQuest displacement of biotinylated Apo2L/TRAIL from receptor-IgG; ratio to Flag-Apo2L.WT
T1 construct: Receptor-IgG protein captured on Protein A acceptor beads; construct not described; not shown: IgG portion, not described
T1 sequence (looked up): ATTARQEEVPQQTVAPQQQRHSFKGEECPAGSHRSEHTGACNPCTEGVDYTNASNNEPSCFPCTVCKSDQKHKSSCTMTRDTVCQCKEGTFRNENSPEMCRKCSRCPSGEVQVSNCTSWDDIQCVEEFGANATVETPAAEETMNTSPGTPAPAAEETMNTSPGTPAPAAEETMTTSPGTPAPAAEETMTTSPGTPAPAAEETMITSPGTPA
Text: (§1) This assay produces a signal when a “donor” and “acceptor” bead are brought in close proximity facilitating singlet oxygen-mediated, fluorescence resonance energy transfer. […] The acceptor bead is coated with Staphylococcal Protein A and is used to capture the receptor-IgG protein.

DR4-IgG [1] = biological target: T2, DR4-IgG (human); assay: as above
T2 construct: Mature DR4 ECD (amino acids 1-218); Made in human 293 cells; also called DR4 receptor immunoadhesin
Text: as §1

DcR2-IgG = biological target: T3, DcR2-IgG (UniProt Q9UBN6 56-211, limits assumed); assay: as above
T3 construct: not shown: IgG portion, not described
T3 sequence (looked up): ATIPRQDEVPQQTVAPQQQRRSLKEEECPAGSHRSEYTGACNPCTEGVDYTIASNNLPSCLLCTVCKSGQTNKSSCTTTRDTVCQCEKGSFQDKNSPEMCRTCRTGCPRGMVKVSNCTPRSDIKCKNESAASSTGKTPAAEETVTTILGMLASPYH
Text: as §1

DR4-IgG [2] = biological target: T2, DR4-IgG; assay: BIAcore SPR; KD relative to Flag.Apo2L.WT
DR5-IgG [3] = biological target: DR5-IgG (human); assay: BIAcore SPR; KD relative to Flag.Apo2L.WT
DR4-IgG [4] = biological target: T2, DR4-IgG; assay: BIAcore SPR, receptor-IgG immobilised; ratio to wild-type Apo2L/TRAIL(114-281)
Experimental: (§2) Briefly, dissociation constants (Kd) for binding of Apo-2L variants (see Tables II and III) to immobilized receptor immunoadhesins were determined from surface plasmon resonance (SPR) measurements on a Pharmacia BIAcore 3000. DR5-IgG (also referred to as Apo-2-IgG) and DcR2-IgG receptor immunoadhesins were prepared as described in WO98/51793 published November 19, 1998 and WO99/10484 published Mar. 9, 1999, respectively. DR4-IgG was prepared as follows. A mature DR4 ECD sequence (amino acids 1-218; Pan et al., supra) was cloned into a pCMV-1 Flag vector (Kodak) downstream of the Flag signal sequence and fused to the CH1, hinge and Fc region of human immunoglobulin G₁ heavy chain as described previously [Aruffo et al., Cell, 61:1303-1313 (1990)]. The immunoadhesin was expressed by transient transfection into human 293 cells and purified from the cell supernatants by protein A affinity chromatography, as described by Ashkenazi et al., Proc. Natl. Acad. Sci., 88:10535-10539 (1991)]. The receptor immunoadhesin proteins were coupled to the sensor chip surface at a level of 300-500 resonance units using amine coupling chemistry (Pharmacia Biosensor). Sensorgrams were recorded for Apo-2L binding at concentrations ranging from 15.6 nM to 500 nM in 2-fold increments. The kinetics constants were determined by non-linear regression analysis and used to calculate the binding constants.

DR5-IgG [5] = biological target: DR5-IgG (human); assay: as above
Experimental: as §2

DR5-IgG [6] = biological target: DR5-IgG (human); assay: AlphaQuest displacement of biotinylated Apo2L/TRAIL from receptor-IgG; ratio to Flag-Apo2L.WT
Text: as §1

DR4-IgG [7] = biological target: T2, DR4-IgG; assay: BIAcore SPR, receptor-IgG immobilised
Experimental: as §2
(§3) These variants were expressed and purified, the purified proteins were assayed for receptor-binding by BIAcore® and bioactivity on SK-MES lung carcinoma cells, as previously described (see, e.g. Hymowitz et al. (2000) Biochemistry 39, 633-640).

DR5-IgG [8] = biological target: T4, DR5-IgG (human); assay: BIAcore SPR, receptor-IgG immobilised
T4 construct: also called Apo-2-IgG
Experimental: as §2, §3

DR5-IgG [9] = biological target: T4, DR5-IgG; assay: BIAcore SPR, receptor-IgG immobilised; ratio to wild-type Apo2L/TRAIL(114-281)
Experimental: as §2

DR5-IgG [10] = biological target: T4, DR5-IgG; assay: AlphaQuest displacement of biotinylated Apo2L/TRAIL from receptor-IgG; ratio to Flag-Apo2L.WT
Text: as §1

DR5-IgG [11] = biological target: T4, DR5-IgG; assay: BIAcore SPR; KD relative to Flag.Apo2L.WT
DR5-IgG [12] = biological target: DR5-IgG (human); assay: BIAcore SPR, receptor-IgG immobilised
Experimental: as §2, §3

B1: Flag-Apo2L.DR4-8 (ligand)
chain: VRERGPQRVAAHITGTRGRSNTLSSPNSKNEKALGRKINSWESSRSGHSFLSNLHLRNGELVIHEKGFYYIYSQTAFRFSEEIKEVTRNDKQMVQYIYKWTDYPDPILLMKSARNSCWSKDAEYGLYSIYQGGIFELKENDRIFVSVTNEHLIDMDHEASFFGAFLVG
IC50 ratio (mutant/wt) (DcR1 receptor-IgG): 5.5 ratio (mutant/wt)
IC50 ratio (mutant/wt) (DR4-IgG [1]): 1 ratio (mutant/wt)
IC50 ratio (mutant/wt) (DcR2-IgG): 15 ratio (mutant/wt)
KD ratio (mut/wt) (DR4-IgG [2]): 0.2 ratio (mut/wt)
KD ratio (mut/wt) (DR5-IgG [3]): 1100 ratio (mut/wt)

B2: Apo2L/TRAIL(114-281) mutant DR5-5 (ligand)
chain: VRERGPQRVAAHITGTRGRSNTLSSPNSKNEKALGRKINSWESSRSGHSFLSNLHLRNGELVIHEKGFYYIYSQTSFRFTEEIKENTKNDKQMVQYIYKYTSYPDPILLMKSARNSCWSKDAEYGLYSIYQGGIFELKENDRIFVSVTNEGLLDMNHEASFFGAFLVG
KD ratio (mutant/wt) (DR4-IgG [4]): 12.4 ratio (mutant/wt)
KD ratio (mutant/wt) (DR5-IgG [5]): 2.5 ratio (mutant/wt)

B3: Flag-Apo2L.DR4-9 (ligand)
chain: VRERGPQRVAAHITGTRGRSNTLSSPNSKNEKALGRKINSWESSRSGHSFLSNLHLRNGELVIHEKGFYYIYSQTAFRFSEEIKERTRNDKQMVQYIYKWTDYPDPILLMKSARNSCWSKDAEYGLYSIYQGGIFELKENDRIFVSVTNEHLIDMDHEASFFGAFLVG
IC50 ratio (mutant/wt) (DcR1 receptor-IgG): 4 ratio (mutant/wt)
IC50 ratio (mutant/wt) (DR4-IgG [1]): 1.1 ratio (mutant/wt)
IC50 ratio (mutant/wt) (DcR2-IgG): 18 ratio (mutant/wt)
KD ratio (mut/wt) (DR4-IgG [2]): 4.3 ratio (mut/wt)
KD ratio (mut/wt) (DR5-IgG [3]): 1200 ratio (mut/wt)

B4: Flag-Apo2L.DR5-1 (ligand)
chain: VRERGPQRVAAHITGTRGRSNTLSSPNSKNEKALGRKINSWESSRSGHSFLSNLHLRNGELVIHEKGFYYIYSQTAFKFKEEIKENTKNDKQMVQYIYKYTSYPDPILLMKSARNSCWSKDAEYGLYSIYQGGIFELKENDRIFVSVTNEALIDMDHEASFFGAFLVG
IC50 ratio (mutant/wt) (DR5-IgG [6]): 2.4 ratio (mutant/wt)
IC50 ratio (mutant/wt) (DcR2-IgG): 32 ratio (mutant/wt)
KD ratio (mut/wt) (DR4-IgG [2]): 11 ratio (mut/wt)
KD ratio (mut/wt) (DR5-IgG [3]): 2.2 ratio (mut/wt)

B5: Flag-Apo2L.DR5-2 (ligand)
chain: VRERGPQRVAAHITGTRGRSNTLSSPNSKNEKALGRKINSWESSRSGHSFLSNLHLRNGELVIHEKGFYYIYSQTAFKFKEEIKENTKNDKQMVQYIYKYTSYPDPILLMKSARNSCWSKDAEYGLYSIYQGGIFELKENDRIFVSVTNEHLIDMDHEASFFGAFLVG
IC50 ratio (mutant/wt) (DR5-IgG [6]): 2.8 ratio (mutant/wt)
IC50 ratio (mutant/wt) (DcR2-IgG): 5 ratio (mutant/wt)
KD ratio (mut/wt) (DR4-IgG [2]): 11 ratio (mut/wt)
KD ratio (mut/wt) (DR5-IgG [3]): 1.9 ratio (mut/wt)

B6: Flag-Apo2L.DR5-21 (ligand)
chain: VRERGPQRVAAHITGTRGRSNTLSSPNSKNEKALGRKINSWESSRSGHSFLSNLHLRNGELVIHEKGFYYIYSQTAFKFKEEIKENTKNDKQMVQYIYKYTSYPDPILLMKSARNSCWSKDAEYGLYSIYQGGIFELKENDRIFVSVTNEDLLNMEHEASFFGAFLVG
IC50 ratio (mutant/wt) (DcR2-IgG): 9.4 ratio (mutant/wt)

B7: Apo2L/TRAIL(114-281) mutant DR5-4 (ligand)
chain: VRERGPQRVAAHITGTRGRSNTLSSPNSKNEKALGRKINSWESSRSGHSFLSNLHLRNGELVIHEKGFYYIYSQTAFRFREEIKENTKNDKQMVQYIYKYTSYPDPILLMKSARNSCWSKDAEYGLYSIYQGGIFELKENDRIFVSVTNEQLLDMNHEASFFGAFLVG
KD ratio (mutant/wt) (DR4-IgG [4]): 3.1 ratio (mutant/wt)
KD ratio (mutant/wt) (DR5-IgG [5]): 1.3 ratio (mutant/wt)

B8: Apo2L.DR5-8 (ligand)
chain: VRERGPQRVAAHITGTRGRSNTLSSPNSKNEKALGRKINSWESSRSGHSFLSNLHLRNGELVIHEKGFYYIYSQTQFKFREEIKENTKNDKQMVQYIYKYTSYPDPILLMKSARNSCWSKDAEYGLYSIYQGGIFELKENDRIFVSVTNERLLQMDHEASFFGAFLVG
notes: also called Apo2L/TRAIL.DR5-8
DR4-binding (ratio relative to wild-type Apo2L) (DR4-IgG [7]): > 25 ratio relative to wild-type Apo2L
DR5-binding (ratio relative to wild-type Apo2L) (DR5-IgG [8]): 0.6 ratio relative to wild-type Apo2L

B9: Apo2L/TRAIL(114-281) mutant DR5-11 (ligand)
chain: VRERGPQRVAAHITGTRGRSNTLSSPNSKNEKALGRKINSWESSRSGHSFLSNLHLRNGELVIHEKGFYYIYSQTAFRFKEEIKENTKNDKQMVQYIYKYTSYPDPILLMKSARNSCWSKDAEYGLYSIYQGGIFELKENDRIFVSVTNEGLVDMSHEASFFGAFLVG
KD ratio (mutant/wt) (DR4-IgG [4]): 5 ratio (mutant/wt)
KD ratio (mutant/wt) (DR5-IgG [5]): 2.2 ratio (mutant/wt)

B10: Apo2L/TRAIL(114-281) mutant DR5-23 (ligand)
chain: VRERGPQRVAAHITGTRGRSNTLSSPNSKNEKALGRKINSWESSRSGHSFLSNLHLRNGELVIHEKGFYYIYSQTAFKFREEIKENTKNDKQMVQYIYKYTSYPDPILLMKSARNSCWSKDAEYGLYSIYQGGIFELKENDRIFVSVTNESLLDMEHEASFFGAFLVG
notes: Untagged, from pAPOK5.0, purified from E. coli
KD ratio (mutant/wt) (DR4-IgG [4]): 105 ratio (mutant/wt)
KD ratio (mutant/wt) (DR5-IgG [9]): 2.4 ratio (mutant/wt)

B11: Flag-Apo2L.DR5-8 (ligand, not shown: small tags and cut ends)
chain: VRERGPQRVAAHITGTRGRSNTLSSPNSKNEKALGRKINSWESSRSGHSFLSNLHLRNGELVIHEKGFYYIYSQTQFKFREEIKENTKNDKQMVQYIYKYTSYPDPILLMKSARNSCWSKDAEYGLYSIYQGGIFELKENDRIFVSVTNERLLQMDHEASFFGAFLVG
modifications: N-terminal Flag epitope tag (pFLAG-MAC) is not written because its letters are not given
IC50 ratio (mutant/wt) (DR5-IgG [10]): 0.7 ratio (mutant/wt)
KD ratio (mut/wt) (DR5-IgG [11]): 0.8 ratio (mut/wt)

B12: Apo2L.DR5-8C (ligand)
chain: VRERGPQRVAAHITGTRGRSNTLSSPNSKNEKALGRKINSWESSRSGHSFLSNLHLRNGELVIHEKGFYYIYSQTQFKFREEIKENTKNDKQMVQYIYKYTSYPDPILLMKSARNSCWSKDAEYGLYSIYQGGIFELKENDRIFVSVTNEHLLDMDHEASFFGAFLVG
DR4-binding (ratio relative to wild-type Apo2L) (DR4-IgG [7]): 5.5 ratio relative to wild-type Apo2L
DR5-binding (ratio relative to wild-type Apo2L) (DR5-IgG [12]): 0.6 ratio relative to wild-type Apo2L

B13: Apo2L.DR5-8B (ligand)
chain: VRERGPQRVAAHITGTRGRSNTLSSPNSKNEKALGRKINSWESSRSGHSFLSNLHLRNGELVIHEKGFYYIYSQTQFKFREEIKENTKNDKQMVQYIYKYTSYPDPILLMKSARNSCWSKDAEYGLYSIYQGGIFELKENDRIFVSVTNEHLIDMDHEASFFGAFLVG
DR4-binding (ratio relative to wild-type Apo2L) (DR4-IgG [7]): 2.5 ratio relative to wild-type Apo2L
DR5-binding (ratio relative to wild-type Apo2L) (DR5-IgG [12]): 0.6 ratio relative to wild-type Apo2L
